Experimental data published in the RNAGym collection of RNA variant scans (doi:10.1093/molbev/msab373).

B1: Azoarcus group I ribozyme (parent)
chain: GUGCCUUGCGCCGGGAAACCACGCAAGGGAUGGUGUCAAAUUCGGCGAAACCUAAGCGCCCGCCCGGGCGUAUGGCAACGCCGAGCCAAGCUUCGGCGCCUGCGCCGAUGAAGGUGUAGAGACUAGACGGCACCCACCUAAGGCAAACGCUAUGGUGAAGGCAUAGUCCAGGGAGUGGCGAAAGUCACACAAACCGG

Variants of: B1
Test: reverse-splicing fitness (ratio to wild type); higher = more active; in vitro selection; Mg2+ level not given
Procedure, shortened: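 An in vitro group I ribozyme library with randomized positions was T7-transcribed and gel-purified. In triplicate, 10 pmol RNA in EPPS pH 7.5 was reacted with 50 pmoles of a 30-nt RNA substrate for 1 h at 37 °C across several added MgCl2 levels (1–48 mM), then stopped with EDTA. Products were reverse transcribed from a substrate-complementary primer, PCR-amplified and sequenced (HiSeq 4000). Fitness is a variant's read proportion after selection over that before, normalised to wild type.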

| Variant | reverse-splicing fitness |
| --- | --- |
| C82A A111U | 0.299 |
| C82A A111U A120C | 0.0268 |
| C82A A111U A120C A145C | 0.0267 |
| C82A A111U A120C A145C C150A | 0.012 |
| C82A A111U A120C A145C C150A C169A | 0.01 |
| C82A A111U A120C A145C C150A C169A U176A | 0.0206 |
| C82A A111U A120C A145C C150A C169A U176C | 0.0164 |
| C82A A111U A120C A145C C150A C169A U176G | 0.00772 |
| C82A A111U A120C A145C C150A C169G | 0.00947 |
| C82A A111U A120C A145C C150A C169G U176A | 0.0385 |
| C82A A111U A120C A145C C150A C169G U176C | 0.0348 |
| C82A A111U A120C A145C C150A C169G U176G | 0.0101 |
| C82A A111U A120C A145C C150A C169U | 0.0111 |
| C82A A111U A120C A145C C150A C169U U176A | 0.0157 |
| C82A A111U A120C A145C C150A C169U U176C | 0.0124 |
| C82A A111U A120C A145C C150A C169U U176G | 0.00621 |
| C82A A111U A120C A145C C150A U176A | 0.0115 |
| C82A A111U A120C A145C C150A U176C | 0.0167 |
| C82A A111U A120C A145C C150A U176G | 0.00578 |
| C82A A111U A120C A145C C150G | 0.00984 |
| C82A A111U A120C A145C C150G C169A | 0.00897 |

| Variant | reverse-splicing fitness |
| --- | --- |
| C82A A111U A120C A145C C150G C169A U176A | 0.00999 |
| C82A A111U A120C A145C C150G C169A U176C | 0.011 |
| C82A A111U A120C A145C C150G C169A U176G | 0.0073 |
| C82A A111U A120C A145C C150G C169G | 0.00743 |
| C82A A111U A120C A145C C150G C169G U176A | 0.0109 |
| C82A A111U A120C A145C C150G C169G U176C | 0.00882 |
| C82A A111U A120C A145C C150G C169G U176G | 0.0065 |
| C82A A111U A120C A145C C150G C169U | 0.00963 |
| C82A A111U A120C A145C C150G C169U U176A | 0.00683 |
| C82A A111U A120C A145C C150G C169U U176C | 0.0102 |
| C82A A111U A120C A145C C150G C169U U176G | 0.00543 |
| C82A A111U A120C A145C C150G U176A | 0.00531 |
| C82A A111U A120C A145C C150G U176C | 0.00974 |
| C82A A111U A120C A145C C150G U176G | 0.0032 |
| C82A A111U A120C A145C C150U | 0.0149 |
| C82A A111U A120C A145C C150U C169A | 0.00907 |
| C82A A111U A120C A145C C150U C169A U176A | 0.0182 |
| C82A A111U A120C A145C C150U C169A U176C | 0.0162 |
| C82A A111U A120C A145C C150U C169A U176G | 0.00873 |
| C82A A111U A120C A145C C150U C169G | 0.00912 |
| C82A A111U A120C A145C C150U C169G U176A | 0.0356 |

| Variant | reverse-splicing fitness |
| --- | --- |
| C82A A111U A120C A145C C150U C169G U176C | 0.0353 |
| C82A A111U A120C A145C C150U C169G U176G | 0.00842 |
| C82A A111U A120C A145C C150U C169U | 0.0105 |
| C82A A111U A120C A145C C150U C169U U176A | 0.0144 |
| C82A A111U A120C A145C C150U C169U U176C | 0.0133 |
| C82A A111U A120C A145C C150U C169U U176G | 0.00618 |
| C82A A111U A120C A145C C150U U176A | 0.0118 |
| C82A A111U A120C A145C C150U U176C | 0.0198 |
| C82A A111U A120C A145C C150U U176G | 0.00643 |
| C82A A111U A120C A145C C169A | 0.0103 |
| C82A A111U A120C A145C C169A U176A | 0.0167 |
| C82A A111U A120C A145C C169A U176C | 0.0175 |
| C82A A111U A120C A145C C169A U176G | 0.00573 |
| C82A A111U A120C A145C C169G | 0.01 |
| C82A A111U A120C A145C C169G U176A | 0.0334 |
| C82A A111U A120C A145C C169G U176C | 0.0325 |
| C82A A111U A120C A145C C169G U176G | 0.00816 |
| C82A A111U A120C A145C C169U | 0.0112 |
| C82A A111U A120C A145C C169U U176A | 0.0168 |
| C82A A111U A120C A145C C169U U176C | 0.0149 |
| C82A A111U A120C A145C C169U U176G | 0.00416 |

| Variant | reverse-splicing fitness |
| --- | --- |
| C82A A111U A120C A145C U176A | 0.0139 |
| C82A A111U A120C A145C U176C | 0.0202 |
| C82A A111U A120C A145C U176G | 0.00578 |
| C82A A111U A120C A145G | 0.0269 |
| C82A A111U A120C A145G C150A | 0.013 |
| C82A A111U A120C A145G C150A C169A | 0.0122 |
| C82A A111U A120C A145G C150A C169A U176A | 0.0221 |
| C82A A111U A120C A145G C150A C169A U176C | 0.0279 |
| C82A A111U A120C A145G C150A C169A U176G | 0.0115 |
| C82A A111U A120C A145G C150A C169G | 0.00972 |
| C82A A111U A120C A145G C150A C169G U176A | 0.0204 |
| C82A A111U A120C A145G C150A C169G U176C | 0.0343 |
| C82A A111U A120C A145G C150A C169G U176G | 0.00858 |
| C82A A111U A120C A145G C150A C169U | 0.0104 |
| C82A A111U A120C A145G C150A C169U U176A | 0.019 |
| C82A A111U A120C A145G C150A C169U U176C | 0.0176 |
| C82A A111U A120C A145G C150A C169U U176G | 0.00879 |
| C82A A111U A120C A145G C150A U176A | 0.0105 |
| C82A A111U A120C A145G C150A U176C | 0.0241 |
| C82A A111U A120C A145G C150A U176G | 0.00997 |
